# Test results taken from paper PMC4028186.
# Legend:
# [1] = molecular target: 50S ribosomal subunit of E. coli (E. coli) (UniProt P0A7L0); assay: stopped-flow Rayleigh light scattering of subunit association; naked 30S (0.25 µM final) mixed with 50S (0.25 µM final) preincubated with ObgE or ObgE-NG (0.5-20 µM in the mix); HEPES polymix buffer pH 7.5, 37°C; Ki from the midpoint of k obs against concentration
# [2] = molecular target: 50S ribosomal subunit of E. coli (E. coli) (UniProt P0A7L0); assay: stopped-flow Rayleigh light scattering of subunit association; 30S-preIC (0.25 µM final; mRNA, fMet-tRNAfMet, IF1, IF2, GTP) mixed with 50S (0.25 µM final) preincubated with ObgE or ObgE-NG; HEPES polymix buffer pH 7.5, 37°C; Ki from the midpoint of k obs against concentration
# [3] = molecular target: 50S ribosomal subunit of E. coli (E. coli) (UniProt P0A7L0); assay: co-sedimentation; as a1, with 0.5 mM ppGpp
# [4] = molecular target: 50S ribosomal subunit of E. coli (E. coli) (UniProt P0A7L0)
# UniProt P0A7L0, sequence (P0A7L0 whole entry, looked up): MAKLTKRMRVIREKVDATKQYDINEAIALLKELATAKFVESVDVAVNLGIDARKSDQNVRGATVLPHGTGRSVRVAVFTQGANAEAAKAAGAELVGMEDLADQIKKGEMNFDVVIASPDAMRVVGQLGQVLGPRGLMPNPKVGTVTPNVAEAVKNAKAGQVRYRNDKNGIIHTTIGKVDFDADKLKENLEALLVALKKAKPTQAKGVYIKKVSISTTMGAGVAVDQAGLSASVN
Ki [2] [nM],Ki [1] [nM],Substance,other results
,,30S ribosomal subunit of E. coli (naked 30S subunit) (complex),k obs of subunit association (without ObgE) [1]: 4 s⁻¹
300,2000,"ObgE (Obg protein in Escherichia coli), full-length, His-tagged (from UniProt P42641 1-390) (enzyme)","fold occupancy on the 50S subunit against the apo state [3]: > 5 fold; GTP hydrolysis rate of ObgE (MESG assay, phosphate release) with increasing amounts of 50S subunits up to an equal amount; without 50S ∼0.0268 min^−1; stimulated about 120-fold [4]: 3.15 min⁻¹"
1000,3700,"ObgE-NG (CTD deleted construct of ObgE, residues 1-340) (from UniProt P42641 1-340) (domain or fragment)",
,,mRNA programmed 30S-preinitiation complex (30S-preIC) (from UniProt P69222 1-72; P0A705 1-890),k obs of subunit association (without ObgE) [2]: 20 s⁻¹
